Data set [1] concerns hTERT-HMEC. Kind of data set: percentage of EdU-negative (G0-arrested) nuclei per well, 72 h; higher = more G0 arrest. Conditions: reference: sequence is the full UniProt precursor, the tested protein was the secreted form or ectodomain.
In data set [2] the test system is MCF7. The data set is described as above. Conditions: reference: sequence is the full UniProt precursor, the tested protein was the secreted form or ectodomain.
The mark [3] stands for this setting: protein concentration 0.0257143 µM.
Setting [4] is: protein concentration 0.257143 µM.
Setting [5] is: protein concentration 0.0225 µM.
[6] abbreviates: protein concentration 0.0357143 µM.
Setting [7] is: protein concentration 0.357143 µM.
Where [8] appears, read: protein concentration 0.0308875 µM.
Setting [9] is: protein concentration 0.308875 µM.

The results in this text go back to the supplement of paper PMC11316812.

± gives the standard deviation of the averaged measurements.
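Note: secreted proteins added to cultured cells, EdU pulse at the end, nuclei found by Hoechst imaging, EdU status from nuclear versus surrounding ring intensity ratio, PBS as neutral control.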

In the case of “MALPRCTWPNYVWRAVMACLVHRGLGAPLTLCMLGCLLQAGHVLSQKLDDVDPLVATNFGKIRGIKKELNNEILGPVIQFLGVPYAAPPTGERRFQPPEPPSPWSDIRNATQFAPVCPQNIIDGRLPEVMLPVWFTNNLDVVSSYVQDQSEDCLYLNIYVPTEDVKRISKECARKPGKKICRKGGPLTKKQTDDLGDNDGAEDEDIRDSGGPKPVMVYIHGGSYMEGTGNLYDGSVLASYGNVIVITVNYRLGVLGFLSTGDQAAKGNYGLLDLIQALRWTSENIGFFGGDPLRITVFGSGAGGSCVNLLTLSHYSEGNRWSNSTKGLFQRAIAQSGTALSSWAVSFQPAKYARMLATKVGCNVSDTVELVECLQKKPYKELVDQDIQPARYHIAFGPVIDGDVIPDDPQILMEQGEFLNYDIMLGVNQGEGLKFVENIVDSDDGISASDFDFAVSNFVDNLYGYPEGKDVLRETIKFMYTDWADRHNPETRRKTLLALFTDHQWVAPAVATADLHSNFGSPTYFYAFYHHCQTDQVPAWADAAHGDEVPYVLGIPMIGPTELFPCNFSKNDVMLSAVVMTYWTNFAKTGDPNQPVPQDTKFIHTKPNRFEEVAWTRYSQKDQLYLHIGLKPRVKEHYRANKVNLWLELVPHLHNLNDISQYTSTTTKVPSTDITFRPTRKNSVPVTSAFPTAKQDDPKQQPSPFSVDQRDYSTELSVTIAVGASLLFLNILAFAALYYKKDKRRHDVHRRCSPQRTTTNDLTHAQEEEIMSLQMKHTDLDHECESIHPHEVVLRTACPPDYTLAMRRSPDDVPLMTPNTITMIPNTIPGIQPLHTFNTFTGGQNNTLPHPHPHPHSHSTTRV [Q8N2Q7]”, the “percentage of EdU-negative” value in data set [1] (setting [3]) was determined as 4.75 ± 0.6%; in data set [1] (setting [4]) it was 5.43 ± 0.056%; in data set [2] (setting [3]), 23.1 ± 1.3%; in data set [2] (setting [4]) it was 22.8 ± 3.5%.
Consider “MALPSLLLLVAALAGGVRPPGARNLTLAVVLPEHNLSYAWAWPRVGPAVALAVEALGRALPVDLRFVSSELEGACSEYLAPLSAVDLKLYHDPDLLLGPGCVYPAASVARFASHWRLPLLTAGAVASGFSAKNDHYRTLVRTGPSAPKLGEFVVTLHGHFNWTARAALLYLDARTDDRPHYFTIEGVFEALQGSNLSVQHQVYAREPGGPEQATHFIRANGRIVYICGPLEMLHEILLQAQRENLTNGDYVFFYLDVFGESLRAGPTRATGRPWQDNRTREQAQALREAFQTVLVITYREPPNPEYQEFQNRLLIRAREDFGVELGPSLMNLIAGCFYDGILLYAEVLNETIQEGGTREDGLRIVEKMQGRRYHGVTGLVVMDKNNDRETDFVLWAMGDLDSGDFQPAAHYSGAEKQIWWTGRPIPWVKGAPPSDNPPCAFDLDDPSCDKTPLSTLAIVALGTGITFIMFGVSSFLIFRKLMLEKELASMLWRIRWEELQFGNSERYHKGAGSRLTLSLRGSSYGSLMTAHGKYQIFANTGHFKGNVVAIKHVNKKRIELTRQVLFELKHMRDVQFNHLTRFIGACIDPPNICIVTEYCPRGSLQDILENDSINLDWMFRYSLINDLVKGMAFLHNSIISSHGSLKSSNCVVDSRFVLKITDYGLASFRSTAEPDDSHALYAKKLWTAPELLSGNPLPTTGMQKADVYSFGIILQEIALRSGPFYLEGLDLSPKEIVQKVRNGQRPYFRPSIDRTQLNEELVLLMERCWAQDPAERPDFGQIKGFIRRFNKEGGTSILDNLLLRMEQYANNLEKLVEERTQAYLEEKRKAEALLYQILPHSVAEQLKRGETVQAEAFDSVTIYFSDIVGFTALSAESTPMQVVTLLNDLYTCFDAIIDNFDVYKVETIGDAYMVVSGLPGRNGQRHAPEIARMALALLDAVSSFRIRHRPHDQLRLRIGVHTGPVCAGVVGLKMPRYCLFGDTVNTASRMESNGQALKIHVSSTTKDALDELGCFQLELRGDVEMKGKGKMRTYWLLGERKGPPGLL”, for which the “percentage of EdU-negative” value in data set [1] (setting [5]) is 4.62 ± 0.46%; in data set [1] (protein concentration 0.225 µM), 6.68 ± 1.3%; in data set [2] (setting [5]), 28 ± 1%; in data set [2] (protein concentration 0.225 µM), 28.8 ± 1.5%.
For “MALPSRILLWKLVLLQSSAVLLHSGSSVPAAAGSSVVSESAVSWEAGARAVLRCQSPRMVWTQDRLHDRQRVLHWDLRGPGGGPARRLLDLYSAGEQRVYEARDRGRLELSASAFDDGNFSLLIRAVEETDAGLYTCNLHHHYCHLYESLAVRLEVTDGPPATPAYWDGEKEVLAVARGAPALLTCVNRGHVWTDRHVEEAQQVVHWDRQPPGVPHDRADRLLDLYASGERRAYGPLFLRDRVAVGADAFERGDFSLRIEPLEVADEGTYSCHLHHHYCGLHERRVFHLTVAEPHAEPPPRGSPGNGSSHSGAPGPDPTLARGHNVINVIVPESRAHFFQQLGYVLATLLLFILLLVTVLLAARRRRGGYEYSDQKSGKSKGKDVNLAEFAVAAGDQMLYRSEDIQLDYKNNILKERAELAHSPLPAKYIDLDKGFRKENCK [Q9BRK3]”, the “percentage of EdU-negative” value in data set [1] (setting [6]) was 4.84 ± 0.53%; in data set [1] (setting [7]), 5.72 ± 0.27%; in data set [2] (setting [6]), 23.2 ± 2.3%; in data set [2] (setting [7]), 25 ± 0.57%.
On to “MALQRTHSLLLLLLLTLLGLGLVQPSYGQDGMYQRFLRQHVHPEETGGSDRYCNLMMQRRKMTLYHCKRFNTFIHEDIWNIRSICSTTNIQCKNGKMNCHEGVVKVTDCRDTGSSRAPNCRYRAIASTRRVVIACEGNPQVPVHFDG”, for which the “percentage of EdU-negative” value in data set [1] (setting [8]) was found to be 4.98 ± 0.26%; in data set [1] (setting [9]), 4.74 ± 0.71%; in data set [2] (setting [8]), 25 ± 2.2%; in data set [2] (setting [9]) it was 25.6 ± 4.4%.
As for “MALRRLGAALLLLPLLAAVEETLMDSTTATAELGWMVHPPSGWEEVSGYDENMNTIRTYQVCNVFESSQNNWLRTKFIRRRGAHRIHVEMKFSVRDCSSIPSVPGSCKETFNLYYYEADFDSATKTFPNWMENPWVKVDTIAADESFSQVDLGGRVMKINTEVRSFGPVSRSGFYLAFQDYGGCMSLIAVRVFYRKCPRIIQNGAIFQETLSGAESTSLVAARGSCIANAEEVDVPIKLYCNGDGEWLVPIGRCMCKAGFEAVENGTVCRGCPSGTFKANQGDEACTHCPINSRTTSEGATNCVCRNGYYRADLDPLDMPCTTIPSAPQAVISSVNETSLMLEWTPPRDSGGREDLVYNIICKSCGSGRGACTRCGDNVQYAPRQLGLTEPRIYISDLLAHTQYTFEIQAVNGVTDQSPFSPQFASVNITTNQAAPSAVSIMHQVSRTVDSITLSWSQPDQPNGVILDYELQYYEKELSEYNATAIKSPTNTVTVQGLKAGAIYVFQVRARTVAGYGRYSGKMYFQTMTEAEYQTSIQEKLPLIIGSSAAGLVFLIAVVVIAIVCNRRGFERADSEYTDKLQHYTSGHMTPGMKIYIDPFTYEDPNEAVREFAKEIDISCVKIEQVIGAGEFGEVCSGHLKLPGKREIFVAIKTLKSGYTEKQRRDFLSEASIMGQFDHPNVIHLEGVVTKSTPVMIITEFMENGSLDSFLRQNDGQFTVIQLVGMLRGIAAGMKYLADMNYVHRDLAARNILVNSNLVCKVSDFGLSRFLEDDTSDPTYTSALGGKIPIRWTAPEAIQYRKFTSASDVWSYGIVMWEVMSYGERPYWDMTNQDVINAIEQDYRLPPPMDCPSALHQLMLDCWQKDRNHRPKFGQIVNTLDKMIRNPNSLKAMAPLSSGINLPLLDRTIPDYTSFNTVDEWLEAIKMGQYKESFANAGFTSFDVVSQMMMEDILRVGVTLAGHQKKILNSIQVMRAQMNQIQSVEGQPLARRPRATGRTKRCQPRDVTKKTCNSNDGKKKGMGKKKTDPGRGREIQGIFFKEDSHKESNDCSCGG [Q6NVW1]”, the “percentage of EdU-negative” value in data set [1] (setting [5]) was found to be 5.5 ± 0.22%; in data set [1] (protein concentration 0.225 µM), 8.19 ± 1%; in data set [2] (setting [5]) it was 25.8 ± 2.3%; in data set [2] (protein concentration 0.225 µM), 26.5 ± 1%.
For “MALRRPPRLRLCARLPDFFLLLLFRGCLIGAVNLKSSNRTPVVQEFESVELSCIITDSQTSDPRIEWKKIQDEQTTYVFFDNKIQGDLAGRAEILGKTSLKIWNVTRRDSALYRCEVVARNDRKEIDEIVIELTVQVKPVTPVCRVPKAVPVGKMATLHCQESEGHPRPHYSWYRNDVPLPTDSRANPRFRNSSFHLNSETGTLVFTAVHKDDSGQYYCIASNDAGSARCEEQEMEVYDLNIGGIIGGVLVVLAVLALITLGICCAYRRGYFINNKQDGESYKNPGKPDGVNYIRTDEEGDFRHKSSFVI [Q9BX67]” the same measures were 4.86 ± 0.27%, 5.13 ± 0.74%, 21.3 ± 0.85% and 24.5 ± 2.1%.
